This passage reports stoichiometry N results from article PMC3490818.

In this assay the target is T1, Signal peptide peptidase (human (endogenous in HEK293)), Q8TCT9.
T1 chain: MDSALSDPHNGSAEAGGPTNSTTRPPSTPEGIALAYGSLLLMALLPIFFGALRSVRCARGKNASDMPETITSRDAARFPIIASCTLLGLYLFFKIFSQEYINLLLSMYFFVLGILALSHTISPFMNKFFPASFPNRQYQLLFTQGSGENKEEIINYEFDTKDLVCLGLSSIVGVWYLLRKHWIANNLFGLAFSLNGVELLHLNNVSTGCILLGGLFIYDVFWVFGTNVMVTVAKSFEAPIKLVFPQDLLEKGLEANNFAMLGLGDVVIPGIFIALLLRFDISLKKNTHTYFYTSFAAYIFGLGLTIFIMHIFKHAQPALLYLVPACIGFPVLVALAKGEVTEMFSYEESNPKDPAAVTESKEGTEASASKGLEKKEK
Nature of the assay: native gel or EMSA; BN-PAGE of HEK293 or HEK293 vigilin-FLAG lysates solubilized in 0.5% DDM, Western blot for SPP and vigilin (or FLAG); second dimension SDS-PAGE for SPP. Conditions: remark: other sources report otherwise. Background: Mobility shift assays separate free from complexed probe on a gel.

B1: Signal peptide peptidase, Q8TCT9 1-377 (natural protein)
chain: T1 chain
A word on the stoichiometry N: it is the number of molecules, sites or subunits per partner or assembly. In turn, B1 registered a stoichiometry N of 2.
